# Data taken from the RNAGym collection of RNA variant scans (doi:10.1073/pnas.2313332121).
# B1: TPR t1 (parent)
# chain: GACCAAUCUGCCCUCAGAGCUCGAGAACAUCUUCGGAUGCAGAGGAGGCAGGCUUCGGUGGCGCGAUAGCGCCAACGUCCUCAACCUCCAAUGCAUCCCACCACAUGAUGAUGCCUGAAGAGCCUUGGUUUUUUG
# Variants of: B1
# Assay: polymerase ribozyme fitness, log enrichment relative to wild type (log ratio); higher = more active; in vitro selection for triplet polymerase activity
# Method in brief: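 Genotype fitness is the logarithm of its enrichment divided by wild-type enrichment, using inverse-variance-weighted averages of replicates. That logarithm is base 2. Enrichment was measured by Illumina sequencing of input and output libraries from one triplicate in vitro selection round, with frozen incubation at −7 °C, on PCR-built, transcribed mutant libraries of each subunit of a heterodimeric triplet polymerase ribozyme, retaining genotypes with ≥10 input reads and ≥1 read per output.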
row,Variant,polymerase ribozyme fitness (log ratio)
1,GACCAAUGUGCCCUCAGAGCUCGAGAACAUCUUCGGAUGCAGAGGAGGCAGGCUUCGGUGGCGCGAUAGCACCAACGUCCUCAACCUCAAAUGCAUUCCACCACAUGAUGAUGCCUGAACAGCCUUGGUUUUUUG [C8G G71A C89A C97U G120C],-1.24
2,GACCAAUGUGCCCUCAGAGCUCGAGAACAUCUUCGGAUGCAGAGGAGGCAGUCUUCGGUGGCGUGAUAGCGCUAACGUCCUCAACCUCCAAUGCAGCCCACCACAUGAUGAUGCCUGAAGAGCCUUGGUUUUUUG [C8G G52U C64U C73U U96G],-1.4
3,GACCAAUGUGCCCUCAGAGCUCGAGAACAUCUUCGGAUGCAGAGGAGGCAGGCUUCGGUGGCACGAUAGCGCCAACGUCCUCGAACUCCAAUGCAUCCCACCACAUGAUGAUGCCUGAAGAACCUUGGUUUUUUG [C8G G63A A83G C85A G122A],-1.28
4,GACCAAUGUGCCCUCAGAGCUCGAGAACAUCUUCGGAUGCAGAGGAGUCAGGCUUCGGUGGCGCGAUAGCGCCAACGUCCUCAACCUCCAAUGCAUCCCACCACAUGAUGAUACCUGAAGAGCCUCGGUUUUUUG [C8G G48U G113A U126C],-0.687
5,GACCAAUGUGCCCUCAGAUCUCGAGAACAUCUUCGGAUGCAGAGGAGACUGGCGUCGGUGGCGCGAUAGCGCCAACGUCCUCAACCUCCAAUGCAACCCACCACAUGAUGAUGACUGAAGAGCCUUGGUUUUUUG [C8G G19U G48A A50U U54G U96A C114A],0.218
6,GACCAAUGUGCCCUCAGAGCUCGAGAACAUCUUCGGAUACAGAGGAGGCAGGCUUCGGUGGCGCGAUAGCGCCAACGUCCUCAACCUCCAAUGCAUCCCACCACAUGAUGAUGCCUUAAGAGCCUUGGUUUAUUG [C8G G39A G117U U132A],0.363
7,GACCAAUGUGCCCUCAGAGCUCGAGAACAUCUUCGGAUUCAGAGGAGGCAGGCUUCGGUGGCGCGAUAGUGCCAACGACCUCAACCUCCAAUGCAUCCCACCACAUGAUGAUGCCUGAAGAGCCUUGGUUUUUUG [C8G G39U C70U U78A],-0.697
8,GACCAAUGUGCCCUCAGAGCUCGAGAACAUCUUCGUAUGCAGAGGAGGCAGGCUUCGGUGGCGCGAUAGCGCCAACGUCCUCAACCUCCAAUGCAUCCCACCACAUGAUGAUGCCUGAAGAGCCUUGGUUUUUUG [C8G G36U],0.298
9,GACCAAUGUGCCCUCAGAGCUCGAGAACAUCUUCGGAUGCAGAGGAGGCAGGCUUCGGUUGCGCGAUAGCGCCAACGUCCUCAACCUCCAAUGCAUCCCACUACAUGAUGAUGCCUGAAGAGCCUUGGUUUUUUG [C8G G60U C102U],-0.641
10,GACCAAUGUGCCCUCAGAUCUCGAGAACAUCUUCGGAUGCAGAGGAGGCAGGCUUCGGUGGCGCGAUAGCGCCAACGUCCUCAACCUCCAAUGCAUCCCACCACAUGAUGAUGCCUGAAGAGCCAUGGUUUUUUG [C8G G19U U125A],-2.65
11,GACCAAUGUGCCCUCAGAGCUCGAGAACAUCUUCGGAUGCAGAGGAGGCAGGCUUCGGUGGCGCGAUAGCGCCAACGUCCUCAACCUCCAAUUCAUCCCACCACAUGAUGAUGCCUGAAGAGCCUUGGUUUUUUG [C8G G93U],-0.15
12,GACCAAUGUGCCCUCAGAGCUCGAGAACAUCUUCGGAUGCAGAGGAGGCAGGCUUCGGUGGCACGAUAGCGCUAACGCCCUCAACCUCCAAUGCAUCCCACCACAUGAUGAUGCCUGAAGAGGCUUGGUUUUUUG [C8G G63A C73U U78C C123G],0.795
13,GACCAAUGUGCCCUCAGAGCUCGAGAACAUCUUCGGAUGCAGAGGAUGCAGGCUUCGGUGGCGCGAUAGCGCCAACGUCCUCAACCUCCAAUGCAUCCCACCACAUGAUGAUGCCUGAAGAGUCUUGGUUUUUUG [C8G G47U C123U],0.786
14,GACCAAUGUGCCCUCAGAGCUCGAGAACAUCUUCGGAUUCAGAGGAGGCAGGCUUCGGUGGCGCGAUAGCGCCAACGUCAUCAACCUCCAAUGCAUCCCACCACAUGAUGAUGCCUGAAGAGCCUUGGUUUUUUG [C8G G39U C80A],-2.47
15,GACCAAUGUGCCCUCAGAGCUCGAGAACAUCUUCGGAUACAGAGGAGGCAGGCUUCGGUGGCUCGAUAGCGCCAACGUCCUCAUCCUCCAAUGCAUCCCACCACAUGAUGAUGCCUGAAGAGCCUUGGUUUUUUG [C8G G39A G63U A84U],-1.03
16,GACCAAUGUGCCCUCAGAGCUCGAGAACAUCUUCGGAUGCAGAGGAGUCAGGCUUCGGUGGCGCGAUAGCGACAACGUCCUCAACCUCCAAUGCAUCCCACCACAUGAUGAUGCCUGAAGAGCCUUGGUUUUUUG [C8G G48U C72A],0.0646
17,GACCAAUGUGCCCUCAGAGCUCGAGAACAUCUUCGGAUGCAGAGGAGACAGGCUUCGGUGGCCCGAUAGCGUCAACGUCCUCAACCUACAAUGCAUCCCACCACAUGAUGAUGCCUGAAGAGCCUUGGUUUUUUG [C8G G48A G63C C72U C88A],-4.05
18,GACCAAUGUGCCCUCAGAGCUCGAGAACAUCUUCGGAUGCAGAGGAGUCAGGCUUCGGUUGCGCGAUAGCGCCAACGUCCUCAAUCUCCAAAGCAUCCCACCACAUGAUGAUGCCUGAAGAGCCUUGGUUUUUUG [C8G G48U G60U C85U U92A],-3.06
19,GACCAAUGUGCCCUCAGAGCUCGAGAACAUCUUCGGAUGCAGAGGAGGCAGGCUUCGGUGACGCGAUAGCGCCAACGUCCUCAACCUCCAAUGCAUCCCACCACAUGAUGAUGCCUGAAGAGCCUUGGUUUUUUG [C8G G61A],0.403
20,GACCAAUGUGCCCUCAGAGCUCGAGAACAUCUUCGGAUGCAGAGGAGGCAGGCUUCGGUGCCGCGAUAGCGCCAACGUCCUCAACCUCCAAUGCAUCCCACCACAUGAUGAUGCCUGAAGAGCCUUGGUUUUUUG [C8G G61C],-1.09
21,GACCAAUGUGCCCUCAGAGCUCGAGAACAUCUUCGGAUGCAGACGAGGCAGGCUUCGGUGGCGUGAUAGCGCCAAAGUCCUCAACCUCCAAUGCAUCCCACCACAUGAUGAUGCCUGAAGAGCGUUGGUUUUUUG [C8G G44C C64U C76A C124G],-6.22
